Our source for the Kd, dH and stoichiometry N values is publication PMC4007562.

By pKd is commonly meant −log10 of the Kd, conventionally taken in molar units. Lower therefore signals a high Kd. For orientation: stoichiometry N means the number of molecules, sites or subunits per partner or assembly.

Test in all cases: ITC; MicroCal iTC200, 25°C, 20 mM Tris/HCl pH 9.0, 100 mM NaCl; SH3B6, sdAb19 or Neffin at 200 μM injected from the syringe into 20 μM Nef in the cell
Background: In ITC the heat of successive injections is recorded.

Experiment [1] has as its target HIV-1 NefSF2 (45–210, C59S, C210A) (HIV-1 (SF2)) (UniProt P03407).
Experiment [2] has as its target HIV-1 NefNA7 (41–206, C206A) (HIV-1 (NA7)).
Experiment [3] addresses HIV-1 Nef_(NL4–3) (41–206, C206A) (HIV-1 (NL4-3)).

pKd: −log10 of the molar value.

Take “Neffin (sdAb19–SH3B6 fusion, 8 aa linker) (from UniProt P08631 77-138) (designed binder)”: the negative-log Kd (pKd) was 8.80 in experiment [1], 7.84 in experiment [2] and 8.41 in experiment [3]. In addition, the results for the dH in experiment [1], in experiment [2] and in experiment [3] were -38.3 kcal/mol, -34.7 kcal/mol and -33.2 kcal/mol, respectively. The figures for the stoichiometry N in experiment [1], in experiment [2] and in experiment [3] were 0.66, 0.67 and 0.65, respectively.

In experiment [1], “Neffin_(triple) (Neffin with D60R/G102R/S103E in the sdAb19 subunit) (from UniProt P08631 77-138) (designed binder)” showed a pKd of 7.63, a dH of -18.1 kcal/mol and a stoichiometry N of 1.08.

“human Hck-SH3B6 (residues 79–138 of human Hck) (from UniProt P08631 79-138) (designed binder)”: in experiment [1], the negative logarithm of the Kd (pKd) is 7.73, the dH is -22.5 kcal/mol and the stoichiometry N was 0.81.
